Laboratory results: patent US20250276092A1 (Regeneron, published 2025)
Substitutions are numbered along the chain they refer to.

B1: REGN17289 (antibody, V domains shown)
VH: EVQLVESGGGLVQPGGSLRLSCAASGFTFSSYAMNWVRQAPGKGLEWVSIISGTIGKTYYADSVKGRFTISRDNSKNTLYLQMNSLRGEDTAVYYCAKDTERDITGSPFDYWGQGTLVTVSS
VL: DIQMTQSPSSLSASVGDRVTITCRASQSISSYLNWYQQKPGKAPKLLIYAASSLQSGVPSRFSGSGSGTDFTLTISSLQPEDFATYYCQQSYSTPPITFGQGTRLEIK
B2: REGN16334 (bispecific antibody, human IgG4 S228P, kappa)
heavy 1: QLQLQESGPGLVRPSETLSLTCSVSGASMNTNNYYWGWIRQPPGKGLEWIGSGYYNGNTYYNPSLKSRVTISVDTSKNQFSLKLNSVTAADTAVYYCARQTPPRIIGSPNIWGQGTMVTVSSASTKGPSVFPLAPCSRSTSESTAALGCLVKDYFPEPVTVSWNSGALTSGVHTFPAVLQSSGLYSLSSVVTVPSSSLGTKTYTCNVDHKPSNTKVDKRVESKYGPPCPPCPAPGGGGPSVFLFPPKPKDTLMISRTPEVTCVVVDVSQEDPEVQFNWYVDGVEVHNAKTKPREEQFNSTYRVVSVLTVLHQDWLNGKEYKCKVSNKGLPSSIEKTISKAKGQPREPQVYTLPPSQEEMTKNQVSLTCLVKGFYPSDIAVEWESNGQPENNYKTTPPVLDSDGSFFLYSRLTVDKSRWQEGNVFSCSVMHEALHNHYTQKSLSLSLGK
heavy 2: EVQLVESGGGLVQPGGSLRLSCAASGFTFGSYGMAWVRQAPGKGLEWVSAISGSGDYTNYADSVKRRFTISRDNSKNTLYLQMSSLRAEDTAVYYCAKEKTGTTGYLYSGMDVWGQGTTVTVSSASTKGPSVFPLAPCSRSTSESTAALGCLVKDYFPEPVTVSWNSGALTSGVHTFPAVLQSSGLYSLSSVVTVPSSSLGTKTYTCNVDHKPSNTKVDKRVESKYGPPCPPCPAPGGGGPSVFLFPPKPKDTLMISRTPEVTCVVVDVSQEDPEVQFNWYVDGVEVHNAKTKPREEQFNSTYRVVSVLTVLHQDWLNGKEYKCKVSNKGLPSSIEKTISKAKGQPREPQVYTLPPSQEEMTKNQVSLTCLVKGFYPSDIAVEWESNGQPENNYKTTPPVLDSDGSFFLYSRLTVDKSRWQEGNVFSCSVMHEALHNRFTQKSLSLSPGK
light: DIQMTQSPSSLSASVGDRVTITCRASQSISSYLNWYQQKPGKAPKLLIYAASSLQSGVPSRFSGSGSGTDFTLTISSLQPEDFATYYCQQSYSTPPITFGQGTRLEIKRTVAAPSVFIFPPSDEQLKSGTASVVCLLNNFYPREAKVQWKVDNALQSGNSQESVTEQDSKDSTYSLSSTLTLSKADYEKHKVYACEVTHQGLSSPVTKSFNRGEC
notes: also called REGN16634 [sic]
B3: REGN20484 (bispecific antibody, human IgG4 S228P, kappa)
heavy 1: B2 heavy 2 with R438H, F439Y, P448L
heavy 2: EVQLVESGGGLVQPGGSLRLSCAASGFTFSSYAMNWVRQAPGKGLEWVSIISGTIGKTYYADSVKGRFTISRDNSKNTLYLQMNSLRGEDTAVYYCAKDTERDITGSPFDYWGQGTLVTVSSASTKGPSVFPLAPCSRSTSESTAALGCLVKDYFPEPVTVSWNSGALTSGVHTFPAVLQSSGLYSLSSVVTVPSSSLGTKTYTCNVDHKPSNTKVDKRVESKYGPPCPPCPAPGGGGPSVFLFPPKPKDTLMISRTPEVTCVVVDVSQEDPEVQFNWYVDGVEVHNAKTKPREEQFNSTYRVVSVLTVLHQDWLNGKEYKCKVSNKGLPSSIEKTISKAKGQPREPQVYTLPPSQEEMTKNQVSLTCLVKGFYPSDIAVEWESNGQPENNYKTTPPVLDSDGSFFLYSRLTVDKSRWQEGNVFSCSVMHEALHNRFTQKSLSLSPGK
light: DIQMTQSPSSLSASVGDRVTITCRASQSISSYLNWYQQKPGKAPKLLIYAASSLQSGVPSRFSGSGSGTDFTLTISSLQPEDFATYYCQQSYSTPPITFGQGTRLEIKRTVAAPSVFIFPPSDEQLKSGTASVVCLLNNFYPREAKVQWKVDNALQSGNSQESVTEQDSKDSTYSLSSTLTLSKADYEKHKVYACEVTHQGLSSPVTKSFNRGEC
B4: REGN17544 (antibody, V domains shown)
VH: EVQLVESGGGLVQPGGSLRLSCAASGFTFGSYGMAWVRQAPGKGLEWVSAISGSGDYTNYADSVKRRFTISRDNSKNTLYLQMSSLRAEDTAVYYCAKEKTGTTGYLYSGMDVWGQGTTVTVSS
VL: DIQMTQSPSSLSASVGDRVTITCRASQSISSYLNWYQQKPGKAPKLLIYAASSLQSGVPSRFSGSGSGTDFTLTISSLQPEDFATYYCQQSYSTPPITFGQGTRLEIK
B5: REGN17288 (antibody, V domains shown)
VH: QLQLQESGPGLVRPSETLSLTCSVSGASMNTNNYYWGWIRQPPGKGLEWIGSGYYNGNTYYNPSLKSRVTISVDTSKNQFSLKLNSVTAADTAVYYCARQTPPRIIGSPNIWGQGTMVTVSS
VL: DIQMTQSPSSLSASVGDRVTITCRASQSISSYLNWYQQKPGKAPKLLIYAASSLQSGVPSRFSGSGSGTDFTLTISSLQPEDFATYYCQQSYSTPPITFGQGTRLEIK

Assays:
[1] = molecular target: T1, human CD40 expressed on cells (human, UniProt P25942 21-277); experiment: cell-based or functional assay
[2] = molecular target: T1, human CD40 expressed on cells; experiment: cell-based or functional assay; remark: listed apart in the source
[3] = molecular target: T1, human CD40 expressed on cells; experiment: cell-based or functional assay; remark: listed apart in the source
[4] = molecular target: T1, human CD40 expressed on cells; experiment: cell-based or functional assay; remark: listed apart in the source
[5] = molecular target: T1, human CD40 expressed on cells; experiment: cell-based or functional assay; remark: listed apart in the source
[6] = molecular target: T1, human CD40 expressed on cells; experiment: cell-based or functional assay; remark: listed apart in the source
[7] = molecular target: T1, human CD40 expressed on cells; experiment: cell-based or functional assay; remark: listed apart in the source
[8] = molecular target: T1, human CD40 expressed on cells; experiment: cell-based or functional assay; remark: listed apart in the source
[9] = molecular target: T1, human CD40 expressed on cells; experiment: cell-based or functional assay; remark: listed apart in the source
[10] = molecular target: T2, human CD40 extracellular domain expressed with a C-terminal myc-myc-hexahistidine tag (human); experiment: ELISA, blocks 40 nM hCD40-mmH binding to coated 9His-hCD40L
T2 construct: also called hCD40-MMH; hCD40-mmH
Protocol: In the blocking assay, 9His-hCD40L was passively absorbed at a concentration of 5 μg/mL in PBS on a 96-well microtiter plate overnight at 4° C. […] In a separate 96-well microtiter plate, a fixed amount of 40 nM hCD40-mmH was pre-mixed with one of the following antibodies, at concentrations ranging from 977 pM to 1 μM in PBS+0.5% BSA: (1) anti-CD40×CD40 bispecific antibodies (REGN16431, REGN16432, REGN16634, and REGN16335); (2) parental anti-CD40 mAbs (bivalent antibodies comprising 2 fragment antigen-binding [Fab] arms identical to one of anti-CD40 Fab of anti-CD40×CD40 antibodies); (3) anti-CD40×Irrelevant antibodies (bivalent antibodies that incorporate one Fab arm identical to one of anti-CD40 Fab of anti-CD40×CD40 antibodies and another Fab arm specific to an irrelevant antigen); and (4) human IgG4 with Fc mutation isotype control antibodies (REGN7540 and REGN4513). The fixed concentration of hCD40-mmH was selected to be near the concentration (EC₅₀ value) that generated 50% of the maximal binding to the plate-adhered 9His-hCD40L. After one-hour incubation, the antibody-antigen complexes were transferred to the microtiter plate coated with 9His-hCD40L. After one hour incubation at room temperature, the plates were washed, and plate-bound hCD40-mmH protein was detected with horseradish peroxidase (HRP) conjugated goat anti-c-Myc antibody. The plates were then developed using TMB substrate solution (BD Biosciences) according to the manufacturer's recommended procedure and the absorbance at 450 nm (OD₄₅₀) was measured on a SpectraMax i3× plate reader.
Binding data were analyzed using a sigmoidal (four-parameter logistic) dose-response model with GraphPad Prism™ software. […] The percent blocking of tested antibodies at the highest tested concentration ([…]) was calculated based on the formula shown below: […]

T2 sequence (chain, as listed by the source limits assumed): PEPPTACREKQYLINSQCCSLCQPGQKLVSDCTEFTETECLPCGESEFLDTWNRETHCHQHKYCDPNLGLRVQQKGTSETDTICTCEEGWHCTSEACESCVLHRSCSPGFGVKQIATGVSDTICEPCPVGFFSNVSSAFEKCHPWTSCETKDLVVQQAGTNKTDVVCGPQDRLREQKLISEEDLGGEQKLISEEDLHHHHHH
T1 sequence (P25942 21-277): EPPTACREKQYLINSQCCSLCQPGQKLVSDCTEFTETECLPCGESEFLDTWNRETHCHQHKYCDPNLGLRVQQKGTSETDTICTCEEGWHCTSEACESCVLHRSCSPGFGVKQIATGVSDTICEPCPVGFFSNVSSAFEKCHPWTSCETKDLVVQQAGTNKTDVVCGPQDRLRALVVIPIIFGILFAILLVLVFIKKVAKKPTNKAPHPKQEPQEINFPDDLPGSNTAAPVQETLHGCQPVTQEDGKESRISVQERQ

Binder	Max % activation, NFkB-luc Ramos, no ligand [1] [%]	Max % inhibition, NFkB-luc Ramos, 500 pM hCD40L [1] [%]	IC50, NFkB-luc Raji, 900 pM hCD40L [2] [M]	Max % activation, NFkB-luc Raji, no ligand [2] [%]	Max % inhibition, NFkB-luc Raji, 900 pM hCD40L [2] [%]	Max % activation, NFkB-luc THP-1, no ligand [3] [%]	Max % inhibition, NFkB-luc THP-1, 10 nM hCD40L [3] [%]	IC50, NFkB-luc Ramos, 500 pM hCD40L [1] [M]	IC50, NFkB-luc THP-1, 10 nM hCD40L [3] [nM]	% max blockade relative to no mAb, IL-6, assay #2, donor 1 [7] [%]	% max blockade relative to no mAb, IL-6, assay #2, donor 2 [7] [%]	% max blockade relative to no mAb, IL-10, assay #2, donor 1 [8] [%]	% max blockade relative to no mAb, IL-10, assay #2, donor 2 [8] [%]	% max blockade relative to no mAb, TNFa, assay #2, donor 1 [9] [%]	% max blockade relative to no mAb, TNFa, assay #2, donor 2 [9] [%]	% Blocking at highest mAb concentration [10] [%]	also measured
B1	4	-133	2.72e-11	10	55	1	-92	–	–	–	–	–	–	–	–	–	EC50 in the presence of CD40L (potentiation), NFkB-luc Ramos, 500 pM hCD40L [1]: 7.51e-12 M; EC50 in the presence of CD40L (potentiation), NFkB-luc THP-1, 10 nM hCD40L [3]: 0.016 nM
B2	6	91	5.76e-11	13	113	1	98	6.93e-11	0.553	88.9	89.2	87.7	89.9	62.8	51.1	98	% max blockade relative to no mAb, IL-6, B cells, donor 1 [4]: 84.5%; % max blockade relative to no mAb, IL-6, B cells, donor 2 [4]: 92%; % max blockade relative to no mAb, IL-6, B cells, donor 3 [4]: 92%; % max blockade relative to no mAb, IL-10, B cells, donor 1 [5]: 74.2%; % max blockade relative to no mAb, IL-10, B cells, donor 2 [5]: 91.4%; % max blockade relative to no mAb, IL-10, B cells, donor 3 [5]: 92.4%; % max blockade relative to no mAb, TNFa, B cells, donor 1 [6]: 44%; % max blockade relative to no mAb, TNFa, B cells, donor 2 [6]: 63.5%; % max blockade relative to no mAb, TNFa, B cells, donor 3 [6]: 68.5%
B3	–	–	–	–	–	–	–	–	–	89	88.1	87.1	90.9	61.9	52.3	–	–
B4	10	77	1.35e-10	11	81	4	96	1.89e-10	1.13	–	–	–	–	–	–	91	–
B5	6	88	4.28e-11	14	90	0	98	4.07e-11	0.334	–	–	–	–	–	–	94	–
